The target in the data set is T1, PUF4 RNA-binding domain (Saccharomyces cerevisiae, UniProt P25339 537-888).
T1 sequence: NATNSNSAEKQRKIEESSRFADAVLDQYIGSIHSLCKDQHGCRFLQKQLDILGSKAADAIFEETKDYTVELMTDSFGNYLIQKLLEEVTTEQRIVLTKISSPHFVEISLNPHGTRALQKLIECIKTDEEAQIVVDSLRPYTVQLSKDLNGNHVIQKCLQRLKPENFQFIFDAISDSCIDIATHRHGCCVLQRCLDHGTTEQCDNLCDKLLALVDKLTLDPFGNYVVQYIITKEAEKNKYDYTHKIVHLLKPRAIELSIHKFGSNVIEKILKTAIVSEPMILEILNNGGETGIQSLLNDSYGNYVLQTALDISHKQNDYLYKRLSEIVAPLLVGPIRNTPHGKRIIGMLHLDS
The data set can be described thus: Mg; RNA-MaP; 20 mM Na-HEPES pH 7.4, 30 mM KOAc, 0.75 mM MgCl2, 0.1% Tween-20, 5% glycerol, 0.1 mg/mL BSA, 2 mM DTT; 25 C; 0.0125-409.6 nM protein. To be noted: tags: N-His6-TEV cleaved; C-SNAP kept, Cy3B-labelled; label: tethered on chip by stalled RNA polymerase.

B1: Ib_S1_P5E.1_K5.1_C5.1_H5.1_[A4G]_A5.1_[T5C]_F5.1_T5.1 (ssRNA)
RNA: UCUCUUUGUGCUAUUAUCUCUU
On to B1, for which binding was put at a Kd of 28 nM. That is a double-digit nanomolar value.

B2: Ib_S1_P5E.1_K5.1_C5.1_H5.1_[T3C]_A5.1_[A7G]_F5.1_T5.1 (ssRNA)
RNA: UCUCUUUGCAUUGUUAUCUCUU
Turning to B2, binding was put at a Kd of 2260 nM.

B3: Id_ii_S4_P5E.2_K5.1_C5.2_[C-2T]_[T-1G]_H5.1_A5.1_F5.1_T5.2_[T11G]_[A12C] (ssRNA)
RNA: UUUGACAACUGAUCGUUCUUUCUUGUGUAUUAUUAGCUUCUUUCUCGAUCAGUUGUCUUU
B3 returned a Kd of 2.47 nM. This Kd lies about 910-fold lower than the previous one.

B4: Id_ii_S4_P5E.3_K5.2_C5.2_[C-2T]_[T-1G]_H5.2_A5.1_F5.1_T5.2_[T11A]_[A12C] (ssRNA)
RNA: UUUGACAACUGAUCGUUCUUUCUUGUAUAUUAUUAACUUCUUUCUCGAUCAGUUGUCUUU
As for B4, binding was put at a Kd of 0.672 nM. Compared with the last molecule, the Kd is about 3.7-fold lower.

B5: Id_ii_S4_P5E.3_K5.2_C5.2_[C-2A]_[T-1A]_H5.2_A5.1_F5.1_T5.2_[T11C]_[A12C] (ssRNA)
RNA: UUUGACAACUGAUCGUUCUUUCUAAUAUAUUAUUACCUUCUUUCUCGAUCAGUUGUCUUU
With B5, the Kd was found to be 896 nM.

B6: Id_ii_S4_P5E.2_K5.1_C5.2_H5.1_A5.1_F5.1_T5.2_[T11A]_[A12C] (ssRNA)
RNA: UUUGACAACUGAUCGUUCUUUCUCUUGUAUUAUUAACUUCUUUCUCGAUCAGUUGUCUUU
As to B6, the Kd was found to be 3 nM.

B7: Id_ii_S4_P5E.3_K5.2_C5.2_[C-2T]_[T-1C]_H5.2_A5.1_F5.1_T5.2_[T11C]_[A12G] (ssRNA)
RNA: UUUGACAACUGAUCGUUCUUUCUUCUAUAUUAUUACGUUCUUUCUCGAUCAGUUGUCUUU
Turning to B7, binding was put at a Kd of 538 nM.

B8: Id_ii_S4_P5E.2_K5.1_C5.2_[T-1A]_H5.1_A5.1_F5.1_T5.2_[A12T] (ssRNA)
RNA: UUUGACAACUGAUCGUUCUUUCUCAUGUAUUAUUAUUUUCUUUCUCGAUCAGUUGUCUUU
B8 had a Kd of 2.17 nM. Against the preceding molecule, the Kd is about 250-fold lower.

B9: Id_ii_S4_P5E.3_K5.2_C5.2_[C-2T]_H5.2_A5.1_F5.1_T5.2_[T11G]_[A12T] (ssRNA)
RNA: UUUGACAACUGAUCGUUCUUUCUUUUAUAUUAUUAGUUUCUUUCUCGAUCAGUUGUCUUU
As to B9, the equilibrium dissociation constant (Kd) is 500 nM. Compared with the last molecule, the Kd is about 230-fold higher.

B10: Id_ii_S4_P5E.2_K5.1_C5.2_[C-2A]_H5.1_A5.1_F5.1_T5.2_[T11A]_[A12C] (ssRNA)
RNA: UUUGACAACUGAUCGUUCUUUCUAUUGUAUUAUUAACUUCUUUCUCGAUCAGUUGUCUUU
Turning to B10, the affinity, expressed as Kd, was 5.14 nM.

B11: Id_ii_S4_P5E.3_K5.2_C5.2_[C-2T]_[T-1G]_H5.2_A5.1_F5.1_T5.2_[T11G]_[A12T] (ssRNA)
RNA: UUUGACAACUGAUCGUUCUUUCUUGUAUAUUAUUAGUUUCUUUCUCGAUCAGUUGUCUUU
Molecule B11 returned an equilibrium dissociation constant (Kd) of 1 nM.

B12: Id_ii_S4_P5E.2_K5.1_C5.2_[C-2T]_[T-1A]_H5.1_A5.1_F5.1_T5.2_[T11A]_[A12C] (ssRNA)
RNA: UUUGACAACUGAUCGUUCUUUCUUAUGUAUUAUUAACUUCUUUCUCGAUCAGUUGUCUUU
B12 returned a Kd of 9.12 nM.

B13: Id_ii_S4_P5E.2_K5.1_C5.2_[T-1A]_H5.1_A5.1_F5.1_T5.2_[T11A] (ssRNA)
RNA: UUUGACAACUGAUCGUUCUUUCUCAUGUAUUAUUAAAUUCUUUCUCGAUCAGUUGUCUUU
B13 displayed a Kd of 8.86 nM.

B14: Id_ii_S4_P5E.3_K5.2_C5.2_[C-2A]_[T-1C]_H5.2_A5.1_F5.1_T5.2_[T11C]_[A12T] (ssRNA)
RNA: UUUGACAACUGAUCGUUCUUUCUACUAUAUUAUUACUUUCUUUCUCGAUCAGUUGUCUUU
B14: the Kd was 122 nM.

B15: Id_ii_S4_P5E.2_K5.1_C5.2_[C-2A]_[T-1C]_H5.1_A5.1_F5.1_T5.2_[T11A]_[A12T] (ssRNA)
RNA: UUUGACAACUGAUCGUUCUUUCUACUGUAUUAUUAAUUUCUUUCUCGAUCAGUUGUCUUU
With B15, the dissociation constant (Kd) stood at 2.62 nM.

B16: Id_ii_S4_P5E.2_K5.1_C5.2_[T-1C]_H5.1_A5.1_F5.1_T5.2_[A12T] (ssRNA)
RNA: UUUGACAACUGAUCGUUCUUUCUCCUGUAUUAUUAUUUUCUUUCUCGAUCAGUUGUCUUU
In the case of B16, the dissociation constant (Kd) stood at 1.38 nM. This Kd is about 1.9-fold lower than that of the molecule before.

B17: Id_ii_S4_P5E.3_K5.2_C5.2_[C-2A]_[T-1C]_H5.2_A5.1_F5.1_T5.2_[A12C] (ssRNA)
RNA: UUUGACAACUGAUCGUUCUUUCUACUAUAUUAUUAUCUUCUUUCUCGAUCAGUUGUCUUU
With B17, binding was characterised by a dissociation constant (Kd) of 216 nM.

B18: Id_ii_S4_P5E.3_K5.2_C5.2_[C-2G]_H5.2_A5.1_F5.1_T5.2_[T11G]_[A12T] (ssRNA)
RNA: UUUGACAACUGAUCGUUCUUUCUGUUAUAUUAUUAGUUUCUUUCUCGAUCAGUUGUCUUU
For the molecule B18, binding was characterised by a dissociation constant (Kd) of 51.7 nM.

B19: Id_ii_S4_P5E.2_K5.1_C5.2_H5.1_A5.1_F5.1_T5.2_[A12C] (ssRNA)
RNA: UUUGACAACUGAUCGUUCUUUCUCUUGUAUUAUUAUCUUCUUUCUCGAUCAGUUGUCUUU
B19 had a Kd of 1.53 nM.

B20: Id_ii_S4_P5E.2_K5.1_C5.2_[C-2A]_H5.1_A5.1_F5.1_T5.2_[A12G] (ssRNA)
RNA: UUUGACAACUGAUCGUUCUUUCUAUUGUAUUAUUAUGUUCUUUCUCGAUCAGUUGUCUUU
B20 gave an equilibrium dissociation constant (Kd) of 4.86 nM.

B21: Id_ii_S4_P5E.3_K5.2_C5.2_[C-2T]_H5.2_A5.1_F5.1_T5.2_[T11G]_[A12C] (ssRNA)
RNA: UUUGACAACUGAUCGUUCUUUCUUUUAUAUUAUUAGCUUCUUUCUCGAUCAGUUGUCUUU
Regarding B21, the Kd came to 416 nM.

B22: Id_ii_S4_P5E.2_K5.1_C5.2_[C-2A]_[T-1C]_H5.1_A5.1_F5.1_T5.2_[A12C] (ssRNA)
RNA: UUUGACAACUGAUCGUUCUUUCUACUGUAUUAUUAUCUUCUUUCUCGAUCAGUUGUCUUU
The molecule B22 yielded a dissociation constant Kd of 2.14 nM.

As a reminder, the Kd is a measure of binding affinity in units of concentration. Higher therefore signals lower affinity.
